Experimental data as given in paper PMC8273347.

Key:
[1] = biological target: 30S–IF3_(488) complex (30S ribosomal subunit with bound Alexa-488-labelled IF3) (UniProt P0A707); experiment: FRET or BRET; stopped-flow chase as a1 (0.05 µM complex, 0.5 µM unlabelled IF1, TAKM7 buffer), with 100 µM Oxytetracycline (Otc)
[2] = biological target: 30S initiation complex (30S subunit, IF3_(488), IF2, mRNA, GTP, fMet-tRNA^fMet) (UniProt P0A707); experiment: as above
[3] = biological target: 30S pre-initiation complex (30S subunit, IF3_(488), IF2, mRNA, GTP) (UniProt P0A707); experiment: as above
[4] = biological target: 30S–IF3_(488) complex (30S ribosomal subunit with bound Alexa-488-labelled IF3) (UniProt P0A707); experiment: FRET or BRET; stopped-flow chase as a1 (0.05 µM complex, 0.5 µM unlabelled IF1, TAKM7 buffer), with 100 µM Tigecycline (Tig)
[5] = biological target: 30S initiation complex (30S subunit, IF3_(488), IF2, mRNA, GTP, fMet-tRNA^fMet) (UniProt P0A707); experiment: as above
[6] = biological target: 30S pre-initiation complex (30S subunit, IF3_(488), IF2, mRNA, GTP) (UniProt P0A707); experiment: as above
[7] = biological target: 30S–IF3_(488) complex (30S ribosomal subunit with bound Alexa-488-labelled IF3) (UniProt P0A707); experiment: FRET or BRET; stopped-flow chase: 0.05 µM 30S complex with IF3_(488) (donor) and IF1_(540Q) (acceptor) mixed with 10-fold excess (0.5 µM) unlabelled IF1, donor fluorescence in time, single exponential fit; TAKM7 buffer (25 mM Tris-HCl pH 7.4, 70 mM NH4Ac, 30 mM KCl, 7 mM MgCl2); no tetracycline
[8] = biological target: 30S initiation complex (30S subunit, IF3_(488), IF2, mRNA, GTP, fMet-tRNA^fMet) (UniProt P0A707); experiment: as above
[9] = biological target: 30S pre-initiation complex (30S subunit, IF3_(488), IF2, mRNA, GTP) (UniProt P0A707); experiment: as above
[10] = biological target: 30S initiation complex (30S subunit, IF3_(488), IF2, mRNA, GTP, fMet-tRNA^fMet) (UniProt P0A707); experiment: FRET or BRET; stopped-flow chase as a1 (0.05 µM complex, 0.5 µM unlabelled IF1, TAKM7 buffer), with 100 µM Oxytetracycline (Otc); remark: listed apart in the source
[11] = biological target: 30S–IF3_(488) complex (30S ribosomal subunit with bound Alexa-488-labelled IF3) (UniProt P0A707); experiment: FRET or BRET; stopped-flow chase as a1 (0.05 µM complex, 0.5 µM unlabelled IF1, TAKM7 buffer), with 100 µM Demeclocycline (Dem)
[12] = biological target: 30S initiation complex (30S subunit, IF3_(488), IF2, mRNA, GTP, fMet-tRNA^fMet) (UniProt P0A707); experiment: as above
[13] = biological target: 30S pre-initiation complex (30S subunit, IF3_(488), IF2, mRNA, GTP) (UniProt P0A707); experiment: as above

## IF1 D4C labelled with Atto-540Q (natural protein)
[1]
  koff: 0.26 s⁻¹
[2]
  koff: 0.03 s⁻¹
[3]
  koff: 0.02 s⁻¹
[4]
  koff: 0.021 s⁻¹
[5]
  koff: 0.015 s⁻¹
[6]
  koff: 0.015 s⁻¹
[7]
  koff: 0.3 s⁻¹
[8]
  koff: 0.02 s⁻¹
[9]
  koff: 0.03 s⁻¹
[10]
  koff: 0.3 s⁻¹
[11]
  koff: 0.2 s⁻¹
[12]
  koff: 0.012 s⁻¹
[13]
  koff: 0.02 s⁻¹
